B1: SEQ ID NO 726 (designed binder)
chain: CLPGQFRCHSTDTCLPESWVCDGVNDCADDSDEASCPPHTCLPSQFQCGSGYCISQRWVCDGENDCEDSSDEANCAGSVPT
B2: SEQ ID NO 714 (designed binder)
chain: CPPSQFTCSNGNCLSPTLLCDGVNDCVDDSDETSCAASVHTCLPSQFQCGSGYCISQRWVCDGENDCEDSSDEANCAGSVPT
B3: SEQ ID NO 700 (designed binder)
chain: CRSNQFQCGSGYCIPVKWLCDGENDCEDSSDEESCPARTCPPSEFRCKGSGKCVPQHWLCDGVNDCEDDSDEKSCPPPT
B4: SEQ ID NO 745 (designed binder)
chain: CPPGEFKCNSGNCVSPTWGCDGVDDCGDDSDEASAICEAPEHTCLPSQFQCGSGYCISQRWVCDGENDCEDSSDEANCAGSVPT
B5: SEQ ID NO 758 (designed binder)
chain: CRPSQFQCQNSSRCIPLGWRCDGDNDCEDGSDEKDCTATARTCLPDQFQCGSGYCLPQAWVCDGENDCEDGSDETNCPART
B6: SEQ ID NO 677 (designed binder)
chain: CRADQCQCNSGHCLSRNLRCDGEDDCADNSDEKSCSQDPEFHKVCLPDQFQCGSGYCLPQRWVCDGVDDCEDSSDEKGCTPHT
B7: SEQ ID NO 787 (designed binder)
chain: CLPNEFTCDSGNCVPQALGCDGDNDCEDNSDESPALCAAPAHTCQANEFTCSSGNCLSPALLCDGVDDCGDNSDETYCASPAPTCLPSQFQCGSGYCISQRWVCDGENDCEDSSDEANCAGSVPT
B8: SEQ ID NO 629 (designed binder)
chain: CLSSQFQCSNGNCIPAAWLCDSDNDCGDDSDETSCPAPTCPSSQFQCSSGWCIPEDWRCDGVPDCGDGSDEASDHCGDSHILPFSTPGPST
B9: SEQ ID NO 665 (designed binder)
chain: CRASQFQCGSGYCIPRPWLCDGVNDCEDGSDEADCQTRTCVPSQFQCGSGYCISQRWVCDGENDCEDSSDEANCAGSVPT
B10: SEQ ID NO 754 (designed binder)
chain: CPPSQFPCNSGNCVSAAWVCDGVDDCGDDSDESLAICPTSTCLPDQFQCGSGYCLPQRWVCDGVDDCEDSSDEKGCTPHT
B11: SEQ ID NO 715 (designed binder)
chain: CLADQFKCHNTNICIPGRLGCDGDPDCEDDSDEKGCPPHTCLPSQFQCGSGYCISQRWVCDGENDCEDSSDEANCAGSVPT
B12: SEQ ID NO 764 (designed binder)
chain: CEAGEFRCRNGSCIPEAWGCDGVNDYLDNSDETNCPAHTCLSSEFQCGSGYCISQRWVCDGENDCEDSSDEANCAGSVPT
B13: SEQ ID NO 751 (designed binder)
chain: CLPSQFQCGSGYCISQRWVCDGENDCEDSSDEANCAGSVPTCLPSEFQCGNGRCLPLRLLCDGDDDCGDNSDEPLATCETSAPT
B14: SEQ ID NO 925 (designed binder)
chain: CLPDQFRCGNGQCMPLDWVCDGVNDCPDDSDEEGCPPRTCEPGQFQCGSGYCISQRWVCDGENDCEDGSDEATCAGSVPQCPSDEFRCRTGRCIPQAWRCDGVNDCVDNSDEECCKEHT
B15: SEQ ID NO 672 (designed binder)
chain: CQPGQFQCHDYGRCVSQNWLCDGDPDCLDSSDEANCQPPTCVPSQFQCGSGYCISQRWVCDGENDCEDSSDEANCAGSVPT
B16: SEQ ID NO 645 (designed binder)
chain: CGANEFQCGSGYCLPVGWVCDGENDCEDNSDEKGCPPHTCLPNQFQCRNGRCIPLPWLCDGDNDCEDDSDATNCTPRT
B17: SEQ ID NO 671 (designed binder)
chain: CQSSEFTCSSGRCLSAGWLCDGVNDCRDDSDEESCTAPVPTCVPSQFQCGSGYCISQRWVCDGENDCEDSSDEANCAGSVPT
B18: SEQ ID NO 720 (designed binder)
chain: CLASQFRCGNGSCLSQTLLCDGVNDCADNSDEVSCPPPTCLPSQFQCGSGYCISQRWVCDGENDCEDSSDEANCAGSVPT
B19: SEQ ID NO 735 (designed binder)
chain: CAANEFRCRSTNTCIPQQWLCDGVNDCQDDSDEKSCRTPAPTCLPSQFQCGSGYCISQRWVCDGENDCEDSSDEANCAGSVPT
B20: SEQ ID NO 725 (designed binder)
chain: CLANEFRCSSGQCIPARWLCDGVNDCVDDSDEKDCPARTCLPSQFQCGSGYCISQRWVCDGENDCEDSSDEANCAGSVPT
B21: SEQ ID NO 784 (designed binder)
chain: CLSSQFQCDNGNCVPQQWVCDGDNDCLDDSDETSCSAPASEPPGSLCPASQFPCSSGHCVPLNWVCDGVNDCVDGSDEAGCPPRTCLPDQFQCGSGYCISQRWVCDGENDCEDSSDEANCAGSVPT
B22: SEQ ID NO 675 (designed binder)
chain: CRSSEFRCDSGHCLPLPWVCDGDDDCEDGSDEAQDCEPRTCVPSQFQCGSGYCISQRWVCDGENDCEDSSDEANCAGSVPT
B23: SEQ ID NO 768 (designed binder)
chain: CASNEFPCSNGNCIPGPLRCDGVNDCEDNSDESPLWPLHTCLPSQFQCGSGYCISQRWVCDGENDCEDSSDEANCAGSVPT
B24: SEQ ID NO 749 (designed binder)
chain: CGASEFRCDSGHCISPDWRCDGDNDCVDGSDEKSCEQRTCLPSQFQCGSGYCFSQRWVCDGENDCEDGSDEANCAGSVPT
B25: SEQ ID NO 670 (designed binder)
chain: CPSNQFQCRNNGTCIPLPWLCDGVDDCGDDSDETSCTEPTCVPSQFQCGSGYCISQRWVCDGENDCEDSSDEANCAGSVPT
B26: SEQ ID NO 716 (designed binder)
chain: CPPGEFPCSSGHCLSQALRCDGVPDCEDDSDETGCPPPTCLPSQFQCGSGYCISQRWVCDGENDCEDSSDEANCAGSVPT
B27: SEQ ID NO 743 (designed binder)
chain: CVPSQFQCRNNGICIPQNWHCDGVPDCEDSSDEESCGTTVHTCLPSQFQCGSGYCISQRWVCDGENDCEDSSDEANCAGSVPT
B28: SEQ ID NO 681 (designed binder)
chain: CGSDEFLCNNGKCIPPTWGCDGVNDCQDNSDEAPALCPPPTCRSNQFQCGSGYCIPQRWVCDGVDDCEDSSDEKGCTPHT
B29: SEQ ID NO 669 (designed binder)
chain: CEASQFPCRNSERCVPPHLLCDGVNDCADGSDEIGCPPHTCVPSQFQCGSGYCISQRWVCDGENDCEDSSDEANCAGSVPT
B30: SEQ ID NO 635 (designed binder)
chain: CAPSQFTCGNGNCVPRPWLCDGDNDCEDDSDETSCPPHTCLPDQFQCGSGYCLPQAWVCDGENDCEDGSDETNCPART
B31: SEQ ID NO 680 (designed binder)
chain: CPADEFPCKNGKCLPLPWVCDGDNDCADNSDETDCTATAPTCRSNQFQCGSGYCISQRWVCDGENDCEDSSDEANCAGSVPT
B32: SEQ ID NO 712 (designed binder)
chain: CRSSQFRCSSGQCVSLGWVCDGVNDCPDSSDETGCPKRTCLPSQFQCGSGYCISQRWVCDGENDCEDSSDEANCAGSVPT
B33: SEQ ID NO 785 (designed binder)
chain: CQASEFPCDSGQCIPQPLGCDGDNDCADNSDEESCQPRTCPASQFPCSSGHCVPLNWVCDGVNDCVDGSDEAGCPPRTCLPDQFQCGSGYCISQRWVCDGENDCEDSSDEANCAGSVPT
B34: SEQ ID NO 730 (designed binder)
chain: CAPSQFRCESGQCLPANWRCDGENDCQDGSDESPAICEGTAPTCLPSQFQCGSGYCISQRWVCDGENDCEDSSDEANCAGSVPT
B35: SEQ ID NO 689 (designed binder)
chain: CRASQFQCGSGYCIPRPWLCDGVNDCEDSSDEANCAGSVPTCQPSQFRCRSGHCISGALGCDGEPDCGDGSDETGCRASAHT

Tests used:
human IL-6 [1] = molecular target: T1, human IL-6 (human, UniProt P05231 30-212); assay: panning and screening on IL-6
T1 construct: the protein used was bought recombinant human IL-6 (R&D Systems), in part biotinylated; also called rhIL-6; hIL-6

human IL-6 [2] = molecular target: T1, human IL-6; assay: ELISA on IL-6 (also TF1 cell assay)

| Binder | binding result (human IL-6 [1]) | binding result (human IL-6 [2]) |
| --- | --- | --- |
| B1 | binds |  |
| B2 | binds |  |
| B3 | binds |  |
| B4 | binds |  |
| CEANELRCSSGRCLSVHWLCDGVDDCEDSSDEAGCPPRT (designed binder) [SEQ ID NO 600] | binds |  |
| B5 | binds |  |
| B6 | binds |  |
| B7 | binds |  |
| B8 | binds |  |
| B9 | binds |  |
| B10 | binds |  |
| B11 | binds |  |
| B12 | binds |  |
| B13 | binds |  |
| B14 |  | binds |
| B15 | binds |  |
| B16 | binds |  |
| B17 | binds |  |
| B18 | binds |  |
| B19 | binds |  |
| CLPSQFQCGSGYCISQRWVCDGEHDCEDSSDEANCAGSVPT (designed binder) [SEQ ID NO 538] | binds |  |

| Binder | binding result (human IL-6 [1]) | binding result (human IL-6 [2]) |
| --- | --- | --- |
| CLPSQFQCGSGWCISQRWVCDGENDCEDSSDEANCAGSVPT (designed binder) [SEQ ID NO 544] | binds |  |
| B20 | binds |  |
| B21 | binds |  |
| B22 | binds |  |
| CLPSEFQCRDSKICLSADWLCDGVNDCVDGSDEAGCPPRT (designed binder) [SEQ ID NO 599] | binds |  |
| B23 | binds |  |
| B24 | binds |  |
| B25 | binds |  |
| B26 | binds |  |
| CQANEFTCSSGNCLSPALLCDGVDDCGDNSDETNCASPAPT (designed binder) [SEQ ID NO 511] | binds |  |
| B27 | binds |  |
| CPPDEFQCNSGSCLSQPLLCDGEDDCGDGSDEESCIAAEHT (designed binder) [SEQ ID NO 575] | binds |  |
| B28 | binds |  |
| B29 | binds |  |
| B30 | binds |  |
| B31 | binds |  |
| B32 | binds |  |
| CPSDEFTCDSGRCVSLNWLCDGVNDCGDNSDEAGCPTRT (designed binder) [SEQ ID NO 603] | binds |  |
| B33 | binds |  |
| B34 | binds |  |
| B35 | binds |  |

Reference: patent US20090305962A1 (Amgen, published 2009)
